Where two headings read alike, the source gives them in different places.
Columns and labels:
[1] = molecular target: T1, base coil K3 (three heptad repeats), YS2H bait fused to Aga2 with C-terminal FLAG tag (yeast)
[2] = molecular target: T2, base coil K5 (five heptad repeats), YS2H bait fused to Aga2 with C-terminal FLAG tag (yeast)
[3] = molecular target: T3, base coil K4 (four heptad repeats), YS2H bait fused to Aga2 with C-terminal FLAG tag (yeast)
[4] = molecular target: T1, base coil K3 (three heptad repeats), …; experiment: predicted from YS2H (flow cytometry of Myc and FLAG tags, Langmuir equation)
[5] = molecular target: T2, base coil K5 (five heptad repeats), …; experiment: as above
[6] = molecular target: T3, base coil K4 (four heptad repeats), …; experiment: as above
[7] = molecular target: T1, base coil K3 (three heptad repeats), …; remark: listed apart in the source
[8] = molecular target: T1, base coil K3 (three heptad repeats), …; experiment: YS2H, Kn-Flag : En-Myc: bait on the yeast surface as Aga2 fusion, secreted prey captured by it; flow cytometry with anti-Myc antibody, MFI of the whole induced population; Flag (bait) MFI of this clone 70; K3-only control Myc MFI 8
[9] = molecular target: NeGFP (partner of the row 'E3' in Figure 2d, base coil deleted, cytosolic)
[10] = molecular target: T1, base coil K3 (three heptad repeats), …; remark: listed apart in the source

B1: acid coil E5 (five heptad repeats), secreted YS2H prey with C-terminal Myc tag (peptide)
peptide: VSALEKEVSALEKEVSALEKEVSALEKEVSALEKEEQKLISEEDL
modifications: not checked
[1]
  MFI (anti-Myc): 10
[2]
  MFI (anti-Myc): 1200
[3]
  MFI (anti-Myc): 653
[4]
  Kd: 1290 nM
[5]
  Kd: 0.49 nM
[6]
  Kd: 18.3 nM

B2: acid coil E3 (three heptad repeats), secreted YS2H prey with C-terminal Myc tag (peptide)
peptide: VSALEKEVSALEKEVSALEKEEQKLISEEDL
modifications: not checked
[7]
  MFI of complemented split eGFP, secretory pathway (K3-NeGFP-Flag : E3-CeGFP-Myc); Flag MFI 67: 20
[8]
  MFI (anti-Myc): 8
[9]
  MFI of complemented split eGFP in the cytosol, control row 'E3' (NeGFP with the base coil deleted : E3-CeGFP): 7
[10]
  MFI of complemented split eGFP in the cytosol (K3-NeGFP : E3-CeGFP, no signal sequences): 216
[4]
  Kd: 1270 nM

B3: acid coil E4 (four heptad repeats), secreted YS2H prey with C-terminal Myc tag (peptide)
peptide: VSALEKEVSALEKEVSALEKEVSALEKEEQKLISEEDL
modifications: not checked
[3]
  MFI (anti-Myc): 68
[6]
  Kd: 151 nM

Source: patent US20100075326A1
